Reference: patent US20260250737A1, “Engineered Luciferases and Luciferin Substrates” (Monod Bio, Inc., priority 2023, published 2026)
Substitutions are numbered along the chain they refer to.

B1: 5261 (protein)
chain: MTPEEIRANVRAFYAALASGDLAAARALFDPGVTITLWDGTTFTSVEEFRAWFEEQFQTSKDALREIESIEVEGDTVRVLVRLTFTRDGVTQEVDLLQLFKFV
B2: 5262 (protein)
chain: B1 chain with I6R, R7I, A8E, L22W, E55K, Q58K, V90K, T91E, Q92E
B3: 5263 (protein)
chain: MTPEEIRANVLAFYAALASGDLAAAEALFDPGVTITLWDGTTFTSVAEFRAWFEAQFQTSKDALREIVDMRVEGDVVRVLVRLTFVRDGEEQVVDLLQLFKFV
B4: 5264 (protein)
chain: MTPEEIRANVEAFYAALASGDWEAARALFDPGVTITLWDGTTFTSVEEFRAWFEEQFKTSKDALREIVDLEVEGDVVRVLVRLTFVRDGKEEVVDLLQLFKFV
B5: 5265 (protein)
chain: B3 chain with E5Q, L11R, L22W, A55E, Q58K, D69S, R71E, V76T, Q92K
B6: 5266 (protein)
chain: B1 chain with R26K, E68V, I70L, E71R, V90K, T91V
B7: 5267 (protein)
chain: B1 chain with R7L, R26K, Q58K, E68V, I70A, V90K, T91V, Q92E
B8: 5268 (protein)
chain: MTPEEIRENVRRFYAALASGDLEAAKSLFDPGVTITLWDGTTFTSVEEFRAWFEEQFQTSKDALREIVSLEVEGDVVRVLVRLTFVRDGEVQEVDLLQLFKFV
B9: 5103 (protein)
chain: MTPEQRIANVRAFYAALASGDLEAAKALFDPGVTITLWDGTTFTSLEEFLAWFEKQFDASKDAKREIVDIEVEGDVVRVLVRLTYTKDGKEKVVDLLQLLKFV
B10: 5269 (protein)
chain: B4 chain with A8E, E11R, W22L, E23A, R26K, E55K, D69S, V76T
B11: 5270 (protein)
chain: B4 chain with E5A, R7I, E11K, E23A, E55A, K58E, D69S, L70M, V76T, D88N
B12: 5271 (protein)
chain: B1 chain with A8E, A12N, A23E, R26K, Q58K, E68V, I70M, V72I, T91E, E93V
B13: 5272 (protein)
chain: B3 chain with I6R, R7I, L11R, L22W, A55Q, V68L, M70I, R71E, E90K
B14: 5273 (protein)
chain: B4 chain with E5A, A8E, E11R, R26K, E55K, D69S
B15: 5274 (protein)
chain: B3 chain with L11R, L22W, D69S, M70L, R71E, E90R, E91T, Q92E, V93E
B16: 5275 (protein)
chain: B8 chain with R7K, R11L, R12N, S27A, E55K, Q58K, L70M, V86T, E90K, Q92E
B17: 5276 (protein)
chain: B4 chain with P3D, E11R, W22L, R26K, E55K, V68E, D69S, V76T, E92Q
B18: 5277 (protein)
chain: B4 chain with E11R, W22L, R26K, A51K, D69E, L70M, E71R, V72I, E92Q
B19: 5278 (protein)
chain: MTPEAIRENVEAFYAALASGDWEAAKALFDPGVTITLWDGTTFTSVEEFRAWFEEQFQTSKDALREIVSMRIEGDTVRVLVRLTFTRDGETQVVDLLQLFKFV
B20: 5104 (protein)
chain: B9 chain with Q5E, R6I, I7R, E23A, V33T, D58K, D69S, I70L, V76T, K87V
B21: 5279 (protein)
chain: B19 chain with A5E, E11R, W22L, E23A, M70L, R71E, T76V, D88N
B22: 5280 (protein)
chain: B4 chain with E11R, E55K, K58Q, D69A, K90V, E92Q, V93E
B23: 5281 (protein)
chain: B4 chain with W22L, R26K, A27S, A51K, D69S, L70M, V72I, V76T, E91V, V93E
B24: 5282 (protein)
chain: B8 chain with R7I, E8A, R12A, S27A, E55Q, L70I, V91E, E93V
B25: 5283 (protein)
chain: MTPEEIRANVERFYAALASGDLETAKALFDPGVTITLWDGTTFTSVEEFRKWFEEQFETSKDALREIVSMEVEGDTVRVLVRLTFVRNGEEKVVDLLQLFKFV
B26: 5284 (protein)
chain: B1 chain with I6R, R7F, A15E, A23E, R26K, E68V, S69D, I70M, D88N, V90E
B27: 5285 (protein)
chain: B4 chain with A12R, E23A, A24T, R26E, E47A, D69S, V72I, E73N, V86T
B28: 5286 (protein)
chain: MTPEERIANVRAFYAALASGDLEAAKALFDPGVTITLWDGTTFTSVEEFRAWFEEQFKTSKDALREIESIEVDGDTVRVLVRLTFVRDGEEKVVDLLQLFKFV
B29: 5287 (protein)
chain: B4 chain with E5A, A8E, E11R, E23A, R26K, E55K, D69S, L70M, E92Q
B30: 5288 (protein)
chain: B28 chain with E5A, R6I, R11K, E23A, I70M, D73E, E90K, K92E

Test system: SmLux
Experiment: Computationally generated LgLux variants expressed in E. coli, tested in lysates with SmLux and substrate 1c
Assay type: biochemical
Details: 50 uM substrate 1c; for Fold change upon SmLux peptide addition: 20 uM SmLux; for Baseline Signal (Normalized by expression): before SmLux peptide addition
Method: LgLux sequences were designed computationally, and their activity measured as depicted schematically in FIG. 45.
A library of the computationally generated LgLux variants were expressed in E. coli and tested in lysates. 20 uM of SmLux and 50 uM of substrate 1c was used for the screening.
LgLux_4039 sequence is as set forth in SEQ ID NO:2773. MBIO-5103 through MBIO-5124, MBIO-5261 through MBIO-5295, MBIO-5101, and MBIO-5102 (SEQ ID NO:2815-SEQ ID NO:2873, respectively) are computationally generated LgLux. The sequences and activity of these LgLux are shown below in Table 21.
MBIO-5358 and MBIO-5360 through MBIO-5381 (SEQ ID NO:2774-SEQ ID NO:2796, respectively) are computationally generated LgLux.

Row | Molecule | Fold change upon SmLux peptide addition | Baseline Signal (Normalized by expression)
1 | B1 | 2.16 | 176.8
2 | B2 | 2.29 | 139.6
3 | B3 | 1.38 | 137.4
4 | B4 | 1.26 | 127.6
5 | B5 | 2.8 | 126.4
6 | B6 | 1.09 | 129.8
7 | B7 | 1.42 | 130.6
8 | B8 | 1.05 | 133
9 | B9 | 0.94 | 193.2
10 | B10 | 1.1 | 137.2
11 | B11 | 1.25 | 135.2
12 | B12 | 10.11 | 145
13 | B13 | 11.86 | 141.4
14 | B14 | 1.01 | 140.4
15 | B15 | 1.07 | 125.2
16 | B16 | 1.35 | 122.8
17 | B17 | 6.45 | 125.6
18 | B18 | 1.19 | 120.6
19 | B19 | 1.61 | 121.2
20 | B20 | 0.97 | 180.8
21 | B21 | 1.12 | 111.8
22 | B22 | 1.07 | 129.2
23 | B23 | 3.02 | 125.6
24 | B24 | 1.18 | 131.8
25 | B25 | 1.14 | 141.4
26 | B26 | 5.16 | 186.8
27 | B27 | 1.26 | 188
28 | B28 | 33.33 | 196
29 | B29 | 1.1 | 174.8
30 | B30 | 1.6 | 170.8
